For 1 molecule, Kd results are on record in article PMC9249894 (2022).

For the test, the target named is Ubiquitin (Homo sapiens, UniProt P0CG48). Kind of test: NMR titration.

B1: CIN85 SH3c 263-333 (protein)
chain: DSRTKSKDYCKVIFPYEAQNDDELTIKEGDIVTLINKDCIDVGWWEGELNGRRGVFPDNFVKLLPPDFEKE
Usually Kd stands for the free concentration of one partner at which half of the binding sites on the other are occupied at equilibrium, for simple one-to-one binding. For the molecule B1, binding was put at a Kd of 370 µM.
